Laboratory results taken from the supplement of paper PMC9170038.

Test system: MS2 coat protein
Test: apparent KD of MS2 coat protein; designed switch direction (-1 OFF switch, 1 ON switch): -1; higher = weaker reporter binding
In short: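 Apparent KD, taken as the median over clusters for each design, was obtained by curve-fitting normalised cluster fluorescence. Designed RNA switches had been transcribed on Illumina chips by stalled E. coli RNA polymerase and titrated with SNAP-549-labelled MS2 coat protein, doubling from 0.7 or 1.5 nM to 3 µM.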

[1] = input ligand: microRNA oligo, concentration not stated

Sequence | apparent KD of MS2 coat protein (input ligand: FMN 200 uM) [nM] | apparent KD of MS2 coat protein (input ligand: none) [nM] | apparent KD of MS2 coat protein [1] [nM] | apparent KD of MS2 coat protein (Eterna round: R95, input ligand: FMN 200 uM) [nM] | apparent KD of MS2 coat protein (Eterna round: R95, input ligand: microRNA oligo, concentration not stated) [nM] | apparent KD of MS2 coat protein (Eterna round: R95, input ligand: none) [nM]
UUUUUCUCAGGAUAUACAUGAGGAUCACCCAUGUAUAUUAAGAAUAAUACAUGGGAAUGUAGAAGGGAGCUCAU [Omei Ex3 Pseudoloop 10] (Eterna round: R97, puzzle: Exclusion 3) | 101 | 129 | – | – | – | –
UACAUGAGGAUCACCCAUGUUUUGUCGUGUAUGGUAUUUAUCUAGGAUAUCAUUUUAUUUAUUUAUGAGAAGGAGAAUAUUAAU [JMF's solution 6] (Eterna round: R96, puzzle: Exclusion NG 3) | 49.4 | 37.2 | 27 | – | – | –
UUCCUCAUAACAUGAGGAUCACCCAUGUAUUAUUUGGUAACUGAGGAUAUACUUUUAAUGUUUAUGUAGAAGGCAGAUACAGUU [JR_ExcNG3_Sub017] (Eterna round: R96, puzzle: Exclusion NG 3) | 165 | 109 | 80.4 | – | – | –
AAGCUUUUUGGUGACCUCGACAUGAGGAUCACCCAUGUCGUAUUAGAACUUCGGACGAUGAUCGUGCUCGUCAUAAG [Eternabot (Original) Solution 43] (Eterna round: R97, puzzle: Sensor, turn-off variant 1) | 598 | 677 | – | – | – | –
GCACGGAGUGUAGGAUAUCUGUGCGAUUAGCUCAGAGAAGGACACAUGAGGAUCACCCAUGUGUAUCAACACAAUAAUCCGUGC [Eli exng1 - 071] (Eterna round: R96, puzzle: Exclusion NG 1) | 14.8 | 14.5 | 13.1 | – | – | –
GUCUGCACGCUGCGGUCCUACAUGAGGAUCACCCAUGUGGUCUGGUGGCGUGGGUCGCCGGACUUGGCUCGUCUUGA [salish99_S_TOV1_R5_045] (Eterna round: R97, puzzle: Sensor, turn-off variant 1) | 16.5 | 15.9 | – | – | – | –
UAUGUGUCAGGAUAUUAAUUAGAACAGAAUUUAACAAUAAUUAAGAAGGGACAUGAGGAUCACCCAUGUUCAUC [JR_Ex4_Sub023] (Eterna round: R97, puzzle: Exclusion 4) | 27.9 | 23.3 | – | – | – | –
CGAUAAAGCUGAGGAUAUGAGGAGAGAGAGAGAUCAGAAGGCAGACAUGAGGAUCACCCAUGUGAGUUCUCGAAAUUAAAUAUU [Prohibition 48 - Jieux - Exclusion NG 1] (Eterna round: R96, puzzle: Exclusion NG 1) | 225 | 57.5 | 47 | – | – | –
AAAUAGCGAGGAUAUACUCCAAUAGCAAAUAUUCCCAUGGCACAUGAGGAUCACCCAUGUAGAAGGCGCAGUAA (Eterna round: R97, puzzle: Exclusion 2) | 54.2 | 44.4 | – | – | – | –
AUAUACAAGCAAAGAUCCUACAUGAGGAUCACCCAUGUGUUCGUCUUAUAAAGUACUAUCACGAAAGUGAUAGUACA [Mat - Sensor v3 - turn-off var 1 - Eli Mod - D80] (puzzle: Sensor v3, turn-off variant 1) | – | – | – | 161 | 6.99 | 87.8
GACUCAAUCCGAGGAUAUUGCCAGCGCUGCUAUCACAUGAGGAUCACCCAUGUAUCCUCGGCUUUCGAGAAGGCGGAUUGAGCG [Eternabot solution 35] (Eterna round: R96, puzzle: Exclusion NG 2) | 132 | 49.9 | 46.8 | – | – | –
AAACAGCAAGGAUAUACGGGCUGUGCUUUUCAUUUCAUACAACAUGAGGAUCACCCAUGUAGAAGGUGCAACAA [Ex2 #4] (Eterna round: R97, puzzle: Exclusion 2) | 125 | 34.3 | – | – | – | –
GUCACAUGGACAUAGGAUCACAUGAGGAUCACCCAUGUGACUAACAAGCUUUUUGCUCGUCUUAUGUCUAUGUGAAA [Stov1/16-A1] (Eterna round: R97, puzzle: Sensor, turn-off variant 1) | 12.8 | 12 | – | – | – | –
CUGUAGCUAUGAGGAUAUGCCACAAAAGUAGUUGCAGAAGGCAUCCCUACCCAGUAAGAACAUGAGGAUCACCCAUGUGAUCUG [Eternabot solution 43] (Eterna round: R96, puzzle: Exclusion NG 1) | 71.6 | 63.4 | 44.5 | – | – | –
ACAGAGCAAGGAUAUGCCGGGCGUGACAUGAGGAUCACCCAUGUGAUGCCGGUACGUUUAGCAGAAGGUGCAGGCA [EX5 C.2] (Eterna round: R97, puzzle: Exclusion 5) | 19 | 14.8 | – | – | – | –
UAUAUAUAGUAAGGAUAUGUAUUUAUUUAAUAAACAGAAGGUACUGACAUGAGGAUCACCCAUGUUUUAGUGUGGGCAUGUAGA [JMF's solution 19] (Eterna round: R96, puzzle: Exclusion NG 1) | – | – | 66.3 | – | – | –
